In the Immune Epitope Database (IEDB):

Key:
HLA-A*26:02 = assay: IEDB peptide-MHC binding, purified MHC/competitive/fluorescence; filed as Kd, often an IC50 or EC50 that approximates it; ≥ and ≤ were set here for values at or beyond the usual limits of such assays; settings: source organism: Yersinia pestis Nepal516
HLA-A*02:03 = assay: as above
HLA-A*01:01 = assay: as above; settings: source organism: Yersinia pestis Nepal516
HLA-A*02:06 = assay: as above; settings: source organism: Yersinia pestis Nepal516
HLA-A*26:03 = assay: as above; settings: source organism: Yersinia pestis Nepal516
HLA-B*08:02 = assay: IEDB peptide-MHC binding, purified MHC/direct/fluorescence; filed as Kd, often an IC50 or EC50 that approximates it; ≥ and ≤ were set here for values at or beyond the usual limits of such assays; settings: source organism: Yersinia enterocolitica subsp. enterocolitica 8081
HLA-B*46:01 = assay: as above; settings: source organism: Yersinia pestis
HLA-B*18:01 [1] = assay: as above; settings: source organism: Yersinia pestis
HLA-B*08:03 = assay: as above; settings: source organism: Yersinia enterocolitica subsp. enterocolitica 8081
HLA-A*03:01 = assay: as above; settings: source organism: Yersinia pestis
HLA-A*26:01 = assay: as above; settings: source organism: Yersinia enterocolitica subsp. enterocolitica 8081
HLA-B*57:01 [2] = assay: as above; settings: source organism: Yersinia pestis
HLA-B*15:01 = assay: as above; settings: source organism: Yersinia pestis
HLA-B*40:01 = assay: as above; settings: source organism: Yersinia pestis
HLA-B*07:02 = assay: as above; settings: source organism: Yersinia pestis
HLA-B*39:01 [3] = assay: as above; settings: source organism: Yersinia enterocolitica subsp. enterocolitica 8081
HLA-A*02:01 [4] = assay: as above; settings: source organism: Yersinia pestis
HLA-B*48:01 = assay: as above; settings: source organism: Yersinia pestis
HLA-B*27:05 = assay: as above; settings: source organism: Yersinia pestis
HLA-B*58:01 = assay: as above; settings: source organism: Yersinia pestis
HLA-A*02:16 = assay: IEDB peptide-MHC binding, purified MHC/competitive/fluorescence; filed as Kd, often an IC50 or EC50 that approximates it; ≥ and ≤ were set here for values at or beyond the usual limits of such assays; settings: source organism: Deerpox virus W-848-83
HLA-B*18:01 [5] = assay: as above; settings: source organism: Deerpox virus W-848-83
HLA-A*02:12 = assay: as above; settings: source organism: Deerpox virus W-848-83
HLA-B*27:03 = assay: as above; settings: source organism: Deerpox virus W-848-83
HLA-A*02:11 = assay: as above; settings: source organism: Deerpox virus W-848-83
HLA-B*51:01 = assay: as above; settings: source organism: Deerpox virus W-848-83
HLA-A*02:19 = assay: as above; settings: source organism: Deerpox virus W-848-83
HLA-B*57:01 [6] = assay: as above; settings: source organism: Deerpox virus W-848-83
HLA-B*39:01 [7] = assay: as above; settings: source organism: Deerpox virus W-848-83
HLA-A*69:01 = assay: as above; settings: source organism: Deerpox virus W-848-83
HLA-A*02:01 [8] = assay: as above; settings: source organism: Deerpox virus W-848-83

Measured: Kd

QWSPGPGRL
0.157 µM: HLA-A*02:06
0.719 µM: HLA-A*03:01
4.85 µM: HLA-A*02:03; source organism: Yersinia pestis Nepal516
≥ 20 µM: HLA-A*26:02 | HLA-A*01:01 | HLA-A*26:03 | HLA-B*08:02 | HLA-B*46:01 | HLA-B*18:01 [1] | HLA-B*08:03 | HLA-A*26:01 | HLA-B*57:01 [2] | HLA-B*15:01 | HLA-B*40:01 | HLA-B*07:02 | HLA-B*39:01 [3] | HLA-A*02:01 [4] | HLA-B*48:01 | HLA-B*27:05 | HLA-B*58:01

YVAGITLTH
≥ 20 µM: HLA-A*02:16 | HLA-B*18:01 [5] | HLA-A*02:12 | HLA-B*27:03 | HLA-A*02:11 | HLA-A*02:03; source organism: Deerpox virus W-848-83 | HLA-B*51:01 | HLA-A*02:19 | HLA-B*57:01 [6] | HLA-B*39:01 [7] | HLA-A*69:01 | HLA-A*02:01 [8]
